# Source: publication PMC3485013, “Rubber Elongation Factor (REF), a Major Allergen Component in Hevea brasiliensis Latex Has Amyloid Properties” (PLoS ONE, 2012)
# Molecular target: the molecule itself
# Experiment: aggregation of the purified protein in solution (visible precipitation; aggregates examined by Congo red, CD, ATR-FTIR, TEM, WAXS); protein alone at 20 µM in 1x PBS pH 7.4, 37°C, 3 h, kept at 4°C (legend of Figure 2C: 50 µM)
protein,measurement,value
"Rubber Elongation Factor (REF), recombinant 6His-REF (natural protein, Hevea brasiliensis, UniProt P15252 1-138, looked up, gene synthesised after codon optimisation from GenBank X56535; No removal of the tag is described, and the same preparation is detected by anti-His antibody in the lipid dot blots; also called Hevb1; HbREF; source: E. coli BL21 (DE3) pLysS Gold, inclusion bodies, purified (Ni-NTA in 8 M urea, dialysed against buffer A); not shown: His6, N-terminal, kept) MAEDEDNQQGQGEGLKYLGFVQDAATYAVTTFSNVYLFAKDKSGPLQPGVDIIEGPVKNVAVPLYNRFSYIPNGALKFVDSTVVASVTIIDRSLPPIVKDASIQVVSAIRAAPEAARSLASSLPGQTKILAKVFYGEN",binding result,binds
